In paper PMC7895464 (Journal of molecular biology, 2020):
Like-named read-outs stand apart in the source and are kept apart here.

Columns and labels:
[1] = molecular target: T1, ClpA-ClpS complex (ClpAS; printed as ClpAPS in the text) (E. coli, UniProt P0ABH9 1-758; P0A8Q6 2-106); test: fluorescence polarisation
T1 sequence 1: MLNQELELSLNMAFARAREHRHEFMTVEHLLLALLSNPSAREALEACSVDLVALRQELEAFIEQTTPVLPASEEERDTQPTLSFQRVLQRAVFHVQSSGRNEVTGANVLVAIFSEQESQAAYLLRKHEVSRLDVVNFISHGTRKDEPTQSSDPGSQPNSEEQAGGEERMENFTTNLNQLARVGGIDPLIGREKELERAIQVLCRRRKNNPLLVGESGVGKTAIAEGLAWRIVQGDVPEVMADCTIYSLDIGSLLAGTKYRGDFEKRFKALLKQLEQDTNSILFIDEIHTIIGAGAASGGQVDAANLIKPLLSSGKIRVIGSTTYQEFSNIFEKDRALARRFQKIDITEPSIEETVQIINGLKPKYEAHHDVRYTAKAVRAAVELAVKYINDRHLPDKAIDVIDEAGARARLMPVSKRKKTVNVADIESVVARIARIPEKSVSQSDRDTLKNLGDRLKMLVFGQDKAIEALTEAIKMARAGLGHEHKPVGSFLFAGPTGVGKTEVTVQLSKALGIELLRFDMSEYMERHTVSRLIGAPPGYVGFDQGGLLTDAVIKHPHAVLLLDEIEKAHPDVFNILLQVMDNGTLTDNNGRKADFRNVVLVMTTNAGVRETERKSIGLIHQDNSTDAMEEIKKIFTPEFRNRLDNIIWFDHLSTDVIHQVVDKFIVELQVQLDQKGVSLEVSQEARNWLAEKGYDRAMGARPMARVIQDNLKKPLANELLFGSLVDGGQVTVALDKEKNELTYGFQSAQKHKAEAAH
T1 sequence 2: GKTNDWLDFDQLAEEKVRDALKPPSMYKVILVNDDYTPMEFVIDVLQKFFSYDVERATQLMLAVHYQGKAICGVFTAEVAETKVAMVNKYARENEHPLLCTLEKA

[2] = molecular target: T2, ClpA (E. coli, UniProt P0ABH9 1-758); test: fluorescence polarisation
T2 sequence (looked up): T1 sequence 1

[3] = molecular target: T2, ClpA; test: fluorescence polarisation; remark: listed apart in the source
[4] = molecular target: T2, ClpA
[5] = molecular target: ClpS*^fl (fluorescein-labelled variant of ClpS containing one cysteine) (E. coli) (UniProt P0A8Q6); test: fluorescence polarisation

B1: λ*^fl-ssrA (fluorescein-labelled ssrA-tagged DNA-binding domain of λ repressor, λ(1-93)^A21C-ssrA) (domain or fragment, bacteriophage λ | E. coli)
chain: MSTKKKPLTQEQLEDARRLKCIYEKKKNELGLSQESVADKMGMGQSGVGALFNGINALNAYNAALLAKILKVSVEEFSPSIAREIYEMYEAVSAANDENYALAA
modifications: fluorescein (fluorescein-5-maleimide) on the single cysteine
- Kd [1]: ~8000 nM
- Kd [2]: 740 nM

B2: ClpS (natural protein, E. coli)
chain: T1 sequence 2
- binding result [3]: binds

B3: ClpS^ΔN17 (domain or fragment, E. coli, UniProt P0A8Q6 18-106, looked up)
chain: VRDALKPPSMYKVILVNDDYTPMEFVIDVLQKFFSYDVERATQLMLAVHYQGKAICGVFTAEVAETKVAMVNKYARENEHPLLCTLEKA
- Kd [4]: ~160 nM

B4: ClpA (enzyme)
chain: T1 sequence 1
- Kd [5]: 160 nM
